Experimental data published in the RNAGym collection of RNA variant scans (doi:10.7554/elife.80360).

B1: CPEB3 Ribozyme (parent)
chain: GGGGGCCACAGCAGAAGCGUUCACGUCGCGGCCCCUGUCAGAUUCUGGUGAAUCUGCGAAUUCUGCUGU

Variants of: B1
Experiment: self-cleavage, relative activity (ratio to wild type); higher = more cleavage; co-transcriptional

Variant	self-cleavage
G2U G50C	0.0712
G2U G50U	0.0728
G2U G37U	0.0465
G2U G37A	0.0373
G3A C35U	0.215
G3A C35G	0.0971
G3A C24G	0.0795
G3A C24A	0.153
G3A C24U	0.188
G3A A60U	0.123
G2C U26C	0.0734
G2C U26A	0.0328
G2C U26G	0.0511
G2U G30U	0.0322
G2C U69A	0.111
G2C U69C	0.147
G2U G31C	0.061
G2U G31U	0.0654
G3C A40G	0
G3C A40U	0.016
G3C A40C	0.0512
G3A G17U	0.0783
G3A G17A	0.0767
G3A G17C	0.0537

Variant	self-cleavage
G3A U46G	0.688
G2U C66G	0.0712
G2U U55A	0.0595
G3A C34A	0.516
G3A C34G	0.256
G2U C34G	0.0441
G2U C34A	0.0756
G2U G58A	0.0612
G2U G58C	0.0697
G2U G58U	0.0822
G2U G68U	0.106
G2U G68C	0.1
G2U G68A	0.128
G3A A52G	0.563
G3A A52U	0.556
G2U C7G	0.0573
G2U C7U	0.0578
G2U C7A	0.0706
G2U C24G	0.0682
G2U C24A	0.0672
G2U C24U	0.038
G2U U67C	0.107
G2U U67G	0.116
G2U U67A	0.127

Variant	self-cleavage
G2U A52C	0.0652
G2U C39A	0.0535
G2U C39U	0.0814
G2U C39G	0.045
G2U U43C	0.0688
G2U U43G	0.0816
G2U U43A	0.118
G2U C22U	0.039
G2U C22G	0.039
G2U C22A	0.0323
G2U C54U	0.0892
G2U C54G	0.0751
G2U U64A	0.0856
G3C A16G	0.162
G3C A16C	0.0367
G3C A16U	0.0415
G2C G37A	0.0459
G2C G37U	0.0045
G2C G41U	0.101
G2C G41C	0.0808
G3A C39A	0.328
G3A C39U	0.273
G3A G11U	0.402
G3A G11A	0.48

Variant	self-cleavage
G3A G11C	0.33
G2C U53G	0.0245
G3A U55G	0.291
G3A U55C	0.187
G2U C33G	0.066
G2U C33U	0.117
G2U C33A	0.0922
G2U A10C	0.0945
G3A C32A	0.191
G3A C32G	0.176
G3A C32U	0.302
G3A A23G	0.401
G3A A23C	0.525
G3A C33G	0.153
G3A C33U	0.231
G2U C6G	0.0267
G2U C6U	0.0652
G2U C6A	0.0497
G2U A42C	0.0887
G2U A42U	0.0798
G2U A42G	0.0791
G3A U62A	0.312
G3A U62G	0.392
G3A U62C	0.357

Variant	self-cleavage
G3A A15G	0.635
G3A A15C	0.308
G3A A15U	0.337
G3A U61A	0.269
G3A U61C	0.246
G2U G5U	0.0421
G2U C27G	0.0366
G2U C27U	0.0348
G2U U26G	0.0848
G2C U46C	0.0336
G2C U46A	0.0309
G2C U46G	0.0683
G2U C45A	0.0935
G2U C45G	0.0316
G2U C45U	0.102
G3A G19A	0.105
G3A G19C	0.0671
G3A G19U	0.092
G2C U44C	0.0257
G2C G31U	0.0216
G2C U38G	0.0453
G2C U38C	0.0174
G3A A16C	0.0704
G3A A16U	0.185

Variant	self-cleavage
G3A G28A	0.113
G3A G28C	0.0675
G3A G28U	0.104
G2U G25U	0.0175
G2U G25A	0.0393
G2U G25C	0.0157
G2U G17A	0.0534
G2U A15C	0.085
G2U A15U	0.0721
G3C A13U	0.0542
G3C A13C	0.0417
G3A U44C	0.474
G3A U44A	0.54
G3A U44G	0.331
G3C A8C	0.0756
G3C A8U	0.123
G3C A8G	0.0364
G3A U38G	0.113
G3A C22A	0.0741
G3A C22G	0.0453
G2C U20A	0.0496
G2C U20C	0.0285
G3A G68C	0.764
G3A G68U	0.86

Variant	self-cleavage
G3A G68A	0.852
G2U U38G	0.0441
G3A G4A	0.204
G3A G4C	0.165
G3A G4U	0.0692
G2U G56U	0.0789
G2U G56C	0.0334
G2U G56A	0.0814
G3A U49G	0.392
G3A U49A	0.627
G3A U53G	0.284
G3A U53C	0.416
G2U C29A	0.0519
G2U C29G	0.0442
G3A G31C	0.122
G3A G31A	0.224
G2U A8U	0.0613
G2U A8C	0.0912
G2U A8G	0.0691
G2U	0.0871
G3A A59U	0.198
G3A A59G	0.362
G2U U69G	0.109
G2C G48U	0.105

Variant	self-cleavage
G2C G48C	0.0429
G3A G14C	0.159
G2U G19A	0.0693
G2U G19C	0.0206
G2U G19U	0.0651
G2C U64G	0.137
G2C U64A	0.0485
G2C U64C	0.0536
G3C	0.147
G3A	0.693
G3A C57G	0.175
G3A C57A	0.11
G3A C57U	0.0942
G3A G41U	0.277
G3A G41A	0.222
G2C U36C	0.063
G2C U21G	0.0813
G2C U21A	0.0234
G2U G41A	0.0653
G3A G37A	0.143
G3A G37U	0.0837
G3A G47U	0.682
G3A G47C	0.658
G2U U61C	0.0727

Variant	self-cleavage
G3A A42C	0.338
G3A A42U	0.394
G3A A42G	0.584
G3A U21A	0.455
G3A U21G	0.129
G3A U21C	0.371
G2C G68A	0.11
G2C G68C	0.114
G3C A10C	0.175
G3C A10G	0.215
G2U G3A	0.0298
G2U G3C	0.0704
G2C U49A	0.0745
G2C U49G	0.0393
G2C U49C	0.0424
G3A C45U	0.634
G2U G48A	0.0985
G2U G48U	0.0675
G2C U55G	0.0548
G2C U55C	0.0587
G2U A40U	0.0492
G2U A40C	0.087
G2U A60C	0.0553
G2U A60U	0.0623

Variant	self-cleavage
G3A C9A	0.895
G3A C9G	0.858
G3A G50A	0.645
G2C G47C	0.0332
G3A C12A	0.324
G3A C12G	0.326
G3A C12U	0.723
G2U G14C	0.0522
G2U G14U	0.0888
G3A G56A	0.26
G3A G56U	0.467
G3A A13U	0.339
G3A A13G	0.596
G2U U46C	0.0853
G2U U46A	0.0474
G2U A51G	0.127
G2U A51U	0.0841
G3C A15G	0.113
G3C A15C	0.0371
G3A C54G	0.25
G3A C54A	0.243
G3A C54U	0.602
G2U C12G	0.0633
G2U C12U	0.13

Variant	self-cleavage
G2U C12A	0.0547
G2U A59U	0.0606
G2U A59C	0.05
G2U C32U	0.113
G2U C32G	0.0483
G3A C7U	0.298
G2U C35A	0.256
G2C G56A	0.014
G2C G56C	0.0446
G2C G56U	0.0319
G3A C18U	0.349
G2U C57G	0.0241
G2U C57A	0.0471
G2U G65C	0.0564
G2U G65U	0.0743
G3A U69G	0.793
G3A U69A	0.847
G3C A23G	0.0477
G3C A23C	0.0635
G3C A42C	0.0214
G3A U20A	0.0708
G2U U21A	0.0838
G2U U21G	0.0462
G2U G11A	0.049

Variant	self-cleavage
G2U G11U	0.0835
G2U A13U	0.052
G2U A13C	0.09
G3A C29U	0.145
G3A C29G	0.122
G3A C29A	0.149
G2U G47C	0.0826
G2U G47U	0.059
G3A A10U	0.889
G3A A10C	0.876
G3A A10G	0.679
G2U A23C	0.0692
G2U A23U	0.133
G2U C9G	0.129
G2U C9A	0.149
G2U U44C	0.067
G2U U44A	0.0745
G2U U44G	0.0788
G3A C66A	0.442
G3A C66G	0.597
G3A C66U	0.724
G2U G4U	0.0539
G2U G4C	0.0426
G3A U26A	0.187

Variant	self-cleavage
G3A U26G	0.29
G2C U67C	0.106
G2C U67A	0.0227
G2C U67G	0.0872
G3A G65U	0.285
G3A G65A	0.527
G3A C63G	0.317
G3A C63A	0.331
G2U U62G	0.0547
G2C G65C	0.0537
G3A G48U	0.722
G3A G48A	0.69
G2U A16U	0.0525
G3A A8U	0.697
G3A A51U	0.651
G3A A51C	0.413
G2C G58C	0.0216
G2C G58U	0.0467
G3A U67G	0.818
G3A U67C	0.819
G2U U36C	0.0828
G2U U36A	0.023
G2U U20G	0.0171
G2U U20C	0.0329

Variant	self-cleavage
G2C G50U	0.0262
G2C G50C	0.0266
G2U C18G	0.00659
G3A G25U	0.054
G3A A40G	0.455
G3A G5U	0.0857
G3A G5A	0.101
G2C U62A	0.0592
G2C U62G	0.0405
G3A G30A	0.181
G3A G30C	0.103
G2C U61A	0.0082
G2C U61G	0.0289
G2C U61C	0.048
G2C U43A	0.0772
G2C U43C	0.0672
G2U U53G	0.0896
G2U U53C	0.0669
G2U U53A	0.0959
G2U G28A	0.0437
G2U G28C	0.0331
G3A G58U	0.701
